The data set is described as follows: soluble on expression in E. coli; label from the status in PepcDB or PDB records.
In the case of “MKASFKGKFDVDKSGSVASLTFNAGNAKLRATMTDASFVAGPSFNGLSLAVEKPGFFIIDYNVPKKDVRFQFMNTIRIAEKPLNLTYIHMRGDNRTIVDGSFVIDPANKLSANYMVGTKNCKLKYTYVHGGIATFEPCYDVAKNMWDFAISHKLYGGDNLKATYQTSSKMLGLEWSNNSKSTGSFKVCASMNLAEELKPPKLTAETTWNLEL”, the “soluble on expression in E. coli” value is on record as “soluble”.

On to “SEIESDPNDGHHHHHRRLHLDLSVDERSPRHGISELLQKLRPEWKPDDIQIKVFTEGITNQLMGCYVGSMTRDPVLLVRVYGQMTELFMDREKEMEMFRVLHKHGCGPQLYCSFNNGICYEFVRGVVLDDTLLHQPSVYRLIATEMGKIHSIKSGDSGARSAVTPVLWSRLSQFLNLLQSADDPEQQRSSADGETPSLEIIMREMEELKSHLARINSPVVLCHNDLLTKNVIYNQEEGAVKFIDYEYADFNYQAYDIGNHFNEFAGIDNVDSSLYPSDELQFDWLSAYLESFKRCSTGDSAVTQTEVQELYEQVCQFSLVAHLFWCLWALLQAKHSTIDFDFQRYARARFNYYFEKKREFCGLTPP”, for which the “soluble on expression in E. coli” value was “soluble”.

Consider “MSIHICQPVSPKENPNGILNNSRPTTALSGLPELHTVGQGADLEIWTKDSHALLFLLKGEPAVFVGPESGNSQLSGDNVVLLAANLRIRLRAEKGPATLICFYFHPTLHLCLGICPSSGNKKECRRRTEIVHISSLQRETMVNSWLHSVMGYLSEMPTSSEIFELKLRELFCIFRSRYEKPLLDNFLSSFHCQNKGFRAFVFRHHLECRSAEELAAKMNLSLSSFKRHFNQEFSCPPLKWMHEERAKHVYTDLADPSLSLKAIAEKNLFSSVSYLCAFCRKMLGNTPLQLRKAMGQQPK”, for which the “soluble on expression in E. coli” value was “not soluble”.

On to “MSLKLLPAKQEAIEFVHFANVINDYLYKYPDKRNSGGTLTSEQIGITPVYDIHHIIYGKRVYIWSADTEGLMSALQQQTKHSAMLGRVKNKKIVDNQGNDMGVPVPSSIPEEAIVLINEGHHHHHH”, for which the “soluble on expression in E. coli” value was “soluble”.

Take “MLLYKDVISGDELVSDAYDLKEVDDIVYEADCQMVTVKQGGDVDIGANPSAEDAEENAEEGTETVNNLVYSFRLSPTSFDKKSYMSYIKGYMKAIKARLQESNPERVPVFEKNAIGFVKKILANFKDYDFYIGESMDPDAMVVLMNYREDGITPYMIFFKDGLVSEKF”: the “soluble on expression in E. coli” value is listed as “soluble”.

For the sequence “GPGSPKLVRINTNEKGITNVQLARAPVNSMSLELFQELNQWMLWLGSNEETKAVIISSAIPTVFSAGLDLVEVHNPKPDRVAVFWQSFQEMWLILNSFPKPIIAAITGNSPAAGCIIAMGCDYRVMARGPKGNTNNNRLYRIGLNETKLGLVAPPWVMPAYAYLLGSRQAERMLQLGETPVADDARNLGLIDEVAADEERAIEVAYQQAERFLSVPQQSRWMARDMMRREYLQMLASDEERNYDTEFFTQFVQSPEVQKNLESYLERLKSCSRK”, the “soluble on expression in E. coli” value was “soluble”.

Turning to “MKTVLVDWNLIPYAEAWQRQTEWFDTLVRAKAQGEAYENRIIMCEHPHVYTLGRSGKENNMLLNDDQLKAIQATLFHIDRGGDITYHGPGQLVCYPILNLEEFHLGLKEYVHLLEEAVIRVCASYGIEAGRLEKATGVWLEGSTPRARKICAIGVRSSHYVTMHGLALNVNTDLRYFSYIHPCGFIDKGVTSLRQELKHEVPMDEVKQRLECELGRLLNEKKQQIAQ”, the “soluble on expression in E. coli” value is reported as “not soluble”.

“MAHHHHHHMADNITNDKRDIFKIHKWSAVAAWSWDISVDNCAICRNHIMDLCIECQAKTTDHENDKDKKIDKEGCTVAWGVCNHAFHLHCISRWIKARQVCPLDNTTWEFQKATD”: the “soluble on expression in E. coli” value is given as “soluble”.

With “MQTFQADLAIVGAGGAGLRAAIAAAQANPNAKIALISKVYPMRSHTVAAEGGSAAVAQDHDSFEYHFHDTVAGGDWLCEQDVVDYFVHHCPTEMTQLELWGCPWSRRPDGSVNVRRFGGMKIERTWFAADKTGFHMLHTLFQTSLQFPQIQRFDEHFVLDILVDDGHVRGLVAMNMMEGTLVQIRANAVVMATGGAGRVYRYNTNGGIVTGDGMGMALSHGVPLRDMEFVQYHPAGLPGSGILMTEGCRGEGGILVNKNGYRYLQDYGMGPETPLGEPKNKYMELGPRDKVSQAFWHEWRKGNTISTPRGDVVYLDLRHLGEKKLHERLPFICELAKAYVGVDPVKEPIPVRPTAHYTMGGIETDQNCETRIKGLFAVGECSSVGLHGANRLGSNSLAELVVFGRLAGEQATERAATAGNGNEAAIEAQAAGVEQRLKDLVNQDGGENWAKIRDEMGLAMEEGCGIYRTPELMQKTIDKLAELQERFKRVRITDTSSVFNTDLLYTIELGHGLNVAECMAHSAMARKESRGAHQRLDEGCTERDDVNFLKHTLAFRDADGTTRLEYSDVKITTLPPAKRVYGGEADAADKAEAANKKEKANG”, the “soluble on expression in E. coli” value was “soluble”.

As for “MSTPTGQPIGLGLPDAPLPVLAPRRKTRQLMVGNVGVGSDYPVSVQSMTTTKTHDVNATLQQIAQLTASGCDIVRVACPKTVDAEALPAIAKKSPIPVIADIHFQPKYIFSAIDAGCAAVRVNPGNIKEFDGRVKEVAKAAGDAGIPIRIGVNAGSLDKRIMEKYGKATPEALVESALWEAGLFEDCGFGDIAISVKHNDPVIMVEAYRQLAAQSDYPLHLGVTEAGPAFQGTIKSSVAFGSLLSQGIGDTIRVSLSADPVEEIKVGDQILQSLNLRKRGLEIVSCPSCGRAQVDVYSLAEEVTAALDGMSIPLRVAVMGCVVNGPGEARDADLGVASGNGKGQIFVRGEVIKTVPESQIVETLIEEAVRLAEAEGLEIEEGAGPQVKITR”, the “soluble on expression in E. coli” value is listed as “not soluble”.

For the sequence “MECGLGGAGQPAVEAEGVWKRLGGRWVLKDVSLTVPRGSVYGVVGPNGAGKTTLFRTLLGLYRADRGRVALLGEPVERAGGSLFRRVAYLPEDGEPYRNMTGHEFLRLYASIYGVEDLEGYLEEASRLSGLGGRLGERVRSYSKGMRRRLLVAAMLALKPSLAVLDEPTAGLDPVYSVGIRRLLKEYSERHGVTVLLSSHNMYEVESVCSEITMISSGRIVYSGSPGEAVRRTGASSLEEAYVALVTGGGGES”, the “soluble on expression in E. coli” value is listed as “soluble”.

On to “MGSDKIHHHHHHMGNIEIKRVIAHHMDLGATKPTFLNNVIDISQEEMQDVIVFFGNHVKKALTTAQLKTCVFKNEDDEVYKYCKELAEDQSDDKLFVRVTRRMTIKLFYNMKRTSSTSSATLIFLHYFNVDSGKDYLGILKMDPNDGIELDPERVVFKVRKHMLPNVKERLHKSAFIKLDEKLFAEESHLYVLDKQQKMDGISKFFLEAFLNAKEVNSDKKTTAFFNTAVMEVARSEKVPNMFAIAKKVSDSMTEGKYIKVDSMLEEVLHDFIPGEEDRFDFIERVKQQMKKKNEDVQFEFTVEKEKEAISFLHNDDKSIQLRFKSILLGTDVFYDEEEDEDGNKFIVLKIREKNIESNFEFKK”, for which the “soluble on expression in E. coli” value is recorded as “not soluble”.

Consider “MAHHHHHHMVLPLPKLIQSNEGRVLYHVTNHPIRTIKKKIEGFFKYESLDNLNSEISVRQNFDELFVPLTHPARNIKDTFYLSENYVKHFSTLHNNLYTQLENTNGIYKYYLVTKFVHHHNILLKRTHMTAHLPDLLRRNYKNVIYTGSVYRRDEIDRFHFPIFHQTDGFLIRPDNFDVETDLKKNLEQLIRYLFDASDVQMKWEDNTSFPFTDPSYELYIRGESSKEIRTTGDDIGGESRWVEVLGCGKIKKEVIAMAMHAEDIRQIIEDEIARHDRGLLDELQSIETAVNEAAVNEAAVNEGATNEGAVNEGATNEAVARKSNVEWIYPNVPTPKDILDKLCTTTLNNRIEAQMNKFLKTIRYQGWAFGIGLERLAMLLYHIQDIRLFWSNDNRFIDQFEEGVITTFHPFSNFPPVEKDISFYITSQFKEDLFFQICRDVASENIEQVKKIDSYHNPKNNQTSVCYRITYRSHTQNLTHKTVNEMQSKIVQMLVKQCAVTIR”, for which the “soluble on expression in E. coli” value is recorded as “not soluble”.

For “MLLAYIDEIGSTGAFIHPNHNRFSDSPAFGYGGFIIPEESAREFGSYFAERKKIFFRNEIPNNIDPGRWEKKGSDLLFALAINERPQNLRLLGSLISKLRKLDGHLFYYAEEKPIGTPKATNCGATEFRDREETAMRETLNRIARHADYEDSRVLVMMDQINEKSRIQRLPAMYAHILGRASEHQEMRRIVEPPMHIDSQLSTNIQFADWICSLAKRAIEYQLVEDSRYSWVSTAEALTPARGSFTYESKLRLYHRAIDDLNHSSILRPTRPLFNSKINQTLDEENRRKLEKVRAATIKEANN”, the “soluble on expression in E. coli” value was “not soluble”.
